Results as given in patent US20200282017A1 (CLEVELAND CLINIC FOUNDATION, published 2020).

Legend:
[1] = molecular target: T1, E. coli (K12) FimH, wild type, on the surface of E. coli (Escherichia coli (K12), UniProt P08191 22-300); assay: immunofluorescence microscopy of E. coli +/- FimH exposed to recombinant HMGB1, stained with anti-HMGB1 antibody
T1 construct: whole, on cells; also called FimH-WT; fimbrial protein H

[2] = molecular target: T1, E. coli (K12) FimH, wild type, on the …; assay: flow cytometry of FimH+ or FimH- E. coli (K12) treated with Box A protein and stained with anti-HIS antibody

T1 sequence (P08191 22-300): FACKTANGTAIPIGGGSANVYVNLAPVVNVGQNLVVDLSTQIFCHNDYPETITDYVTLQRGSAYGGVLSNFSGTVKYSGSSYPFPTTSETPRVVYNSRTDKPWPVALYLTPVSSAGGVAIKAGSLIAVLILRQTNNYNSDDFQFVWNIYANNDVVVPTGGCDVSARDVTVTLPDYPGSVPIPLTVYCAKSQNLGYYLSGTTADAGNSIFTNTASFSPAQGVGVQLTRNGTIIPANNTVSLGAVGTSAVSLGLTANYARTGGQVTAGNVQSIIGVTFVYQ

B1: High mobility group box 1 (HMGB1), recombinant human HMGB1 produced in mammalian cells (other)
chain: MGKGDPKKPRGKMSSYAFFVQTCREEHKKKHPDASVNFSEFSKKCSERWKTMSAKEKGKFEDMAKADKARYEREMKTYIPPKGETKKKFKDPNAPKRPPSAFFLFCSEYRPKIKGEHPGLSIGDVAKKLGEMWNNTAADDKQPYEKKAAKLKEKYEKDIAAYRAKGKPDAAKKGVVKAEKSKKKKEEEEDEEDEEDEEEEEDEEDEDEEEDDDDE
notes: also called recombinant HMGB1; full-length HMGB1 protein
binding result [1]: binds

B2: Box A protein, truncation mutant composed of aa 2-97 of HMGB1 (other)
chain: GKGDPKKPRGKMSSYAFFVQTCREEHKKKHPDASVNFSEFSKKCSERWKTMSAKEKGKFEDMAKADKARYEREMKTYIPPKGETKKKFKDPNAPKR
notes: The position of the His tag is unknown; also called Box A from HMGB1; not shown: His tag implied by detection with anti-HIS antibody
binding result [2]: binds
